Results as given in article doi:10.1101/2023.03.02.530905 (bioRxiv, 2023).
Positions count from the first letter of the chain named.

B1: GM130 N122-oDi-his (other)
chain: MWPPRFPPPRPGMSEETRQSKLAAAKKKLREYQQKNSPGVPAGAKKKKKIKNGHSPERTSASDCQSAENVPTDHTAPAPPSTAAATMFLGVVPSPDADLIQSHDAGNCSNLMEETKTFSSTEGEIAALKQEIAALKKENAALKFEIAALKQG
B2: GM130 N122-oTet-his (other)
chain: B1 chain with I125L, L128I, I132L, L135I, N139L, L142I, F144W, I146L, L149I

Target: the molecule itself
Test: cross-linking

Row | Protein | stoichiometry N
1 | B1 | 2
2 | B2 | 4
